Experimental data from patent US20110008326A1 (published 2011).

Biological target: T1, Human, recombinant IL-4R-Fc protein (human, UniProt P24394 26-232)
T1 construct: also called immobilized receptor
T1 sequence: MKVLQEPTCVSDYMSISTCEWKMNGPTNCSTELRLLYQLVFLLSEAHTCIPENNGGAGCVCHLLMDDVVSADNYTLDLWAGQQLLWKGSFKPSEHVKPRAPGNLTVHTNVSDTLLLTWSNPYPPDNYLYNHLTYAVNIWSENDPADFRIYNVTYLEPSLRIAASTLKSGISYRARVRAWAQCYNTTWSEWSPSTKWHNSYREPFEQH
Experiment: competition ELISA on IL-4R-Fc coated plates; competitor: 10 ng/ml mouse antibody X2/45
Description: Human, recombinant IL-4R-Fc protein was immobilized on ELISA plates at 100 ng/well followed by blocking of free binding sites.

B1: humanised anti-IL-4R antibody (variable regions SEQ ID NOs: 13 and 14) (antibody, V domains shown)
VH: EVQLVESGGGLVKPGGSLRLSCAASGFTFNTNAMNWVRQAPGKGLEWVARIRSKSNNYATYYADSVKDRFTLSRDDSKNTLYLQMNSLKTEDTAVYYCTRDRGWGAMDYWGQGTTVTVSS
VL: DIQMTQSPSSLSASVGDRVTITCSASQDINNYLNWYQQKPGKAPKLLIYYTSSLHSGVPSRFSGSGSGTDFTLTISSLQPEDFATYYCQQFSNLPWTFGGGTKLEIK
notes: Full length antibody made in Hek 293T cells; light chain of kappa type; also called humanised antibody; humanised version of X2/45
- binding result: binds
